In US20190136256:

Target: T1, Myc tagged AN (AN-Myc)
T1 chain: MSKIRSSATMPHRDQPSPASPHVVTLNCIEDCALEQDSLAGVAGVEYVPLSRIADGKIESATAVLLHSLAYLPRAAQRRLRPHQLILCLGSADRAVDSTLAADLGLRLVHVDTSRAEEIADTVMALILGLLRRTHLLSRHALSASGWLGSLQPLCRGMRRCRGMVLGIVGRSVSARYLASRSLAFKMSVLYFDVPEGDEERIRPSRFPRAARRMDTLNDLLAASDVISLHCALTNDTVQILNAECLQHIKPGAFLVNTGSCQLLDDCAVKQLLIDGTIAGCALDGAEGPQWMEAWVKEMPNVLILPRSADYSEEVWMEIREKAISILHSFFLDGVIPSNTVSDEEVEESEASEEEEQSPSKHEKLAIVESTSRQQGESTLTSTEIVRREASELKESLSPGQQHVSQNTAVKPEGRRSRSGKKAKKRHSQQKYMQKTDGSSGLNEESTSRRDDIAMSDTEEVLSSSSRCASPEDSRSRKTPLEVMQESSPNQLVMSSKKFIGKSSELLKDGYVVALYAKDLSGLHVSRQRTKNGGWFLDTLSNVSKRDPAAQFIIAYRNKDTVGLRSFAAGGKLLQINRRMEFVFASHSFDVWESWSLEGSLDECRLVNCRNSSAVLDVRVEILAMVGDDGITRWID

B1: HA-tagged TDP1 (HA-TDP1) (protein)
chain: MAHSQVAYLIPLKADLKEDNSSPRITLSEGPNIIGRGNVSIVDKRLSRKHITIIVSTSGSASLSVDGTNPVVIRSSGDGERKKVKPSEEVSVCNDDLIELIPGHHFFKLVLLNGRAAKKARKAEDDVEAIRRFCPPNEKLPSTFRLLSVDALPDWANTSCVSINDVIEGDVVAAILSNYMVDIDWLMSACPKLANIPQVMVIHGEGDGRQEYIQRKKPANWILHKPRLPISFGTHHSKAIFLVYPRGVRVVVHTANLIHVDWNNKSQGLWMQDFPWKDDDKDPPKGCGFEGDLIDYLNVLKWPEFTANLPGRGNVKINAAFFKKFDYSDATVRLIASVPGYHTGFNLNKWGHMKLRTILQECIFDREFRRSPLIYQFSSLGSLDEKWLAEFGNSLSSGITEDKTPLGPGDSLIIWPTVEDVRCSLEGYAAGNAIPSPLKNVEKPFLKKYWARWKADHSARGRAMPHIKTFTRYNDQKIAWFLLTSSNLSKAAWGALQKNNSQLMIRSYELGVLFLPSPIKTQGCVFSCTESNPSVMKAKQETKDEVEKRSKLVTMTWQGDRDLPEIISLPVPYQLPPKPYSPEDVPWSWDRGYSKKDVYGQVWPR
µChIP-qPCR: association of AN with MYB46 promoter: the chromatin association of AN with MYB46 promoter was significantly increased (p<0.05) in vivo when co-expressed with TDP1
